From doi:10.1101/2024.10.07.617049 (bioRxiv, 2024)
Changes are numbered by the printed parent chain. Names may count otherwise. Blank lines part the entries; values can stand above or below the binder they belong to.

Tests used:
[1] = target: T1, selinexor-conjugated XPO1 (human, UniProt O14980 1-1071, Cys528 covalently conjugated to selinexor (KPT-330)); experiment: cryo-EM structure
KPT-185-conjugated XPO1 = KPT-185-conjugated XPO1 (human, UniProt O14980 1-1071, Cys528 covalently conjugated to KPT-185); experiment: cryo-EM structure
KPT-185-conjugated XPO1, sequence (O14980 whole entry): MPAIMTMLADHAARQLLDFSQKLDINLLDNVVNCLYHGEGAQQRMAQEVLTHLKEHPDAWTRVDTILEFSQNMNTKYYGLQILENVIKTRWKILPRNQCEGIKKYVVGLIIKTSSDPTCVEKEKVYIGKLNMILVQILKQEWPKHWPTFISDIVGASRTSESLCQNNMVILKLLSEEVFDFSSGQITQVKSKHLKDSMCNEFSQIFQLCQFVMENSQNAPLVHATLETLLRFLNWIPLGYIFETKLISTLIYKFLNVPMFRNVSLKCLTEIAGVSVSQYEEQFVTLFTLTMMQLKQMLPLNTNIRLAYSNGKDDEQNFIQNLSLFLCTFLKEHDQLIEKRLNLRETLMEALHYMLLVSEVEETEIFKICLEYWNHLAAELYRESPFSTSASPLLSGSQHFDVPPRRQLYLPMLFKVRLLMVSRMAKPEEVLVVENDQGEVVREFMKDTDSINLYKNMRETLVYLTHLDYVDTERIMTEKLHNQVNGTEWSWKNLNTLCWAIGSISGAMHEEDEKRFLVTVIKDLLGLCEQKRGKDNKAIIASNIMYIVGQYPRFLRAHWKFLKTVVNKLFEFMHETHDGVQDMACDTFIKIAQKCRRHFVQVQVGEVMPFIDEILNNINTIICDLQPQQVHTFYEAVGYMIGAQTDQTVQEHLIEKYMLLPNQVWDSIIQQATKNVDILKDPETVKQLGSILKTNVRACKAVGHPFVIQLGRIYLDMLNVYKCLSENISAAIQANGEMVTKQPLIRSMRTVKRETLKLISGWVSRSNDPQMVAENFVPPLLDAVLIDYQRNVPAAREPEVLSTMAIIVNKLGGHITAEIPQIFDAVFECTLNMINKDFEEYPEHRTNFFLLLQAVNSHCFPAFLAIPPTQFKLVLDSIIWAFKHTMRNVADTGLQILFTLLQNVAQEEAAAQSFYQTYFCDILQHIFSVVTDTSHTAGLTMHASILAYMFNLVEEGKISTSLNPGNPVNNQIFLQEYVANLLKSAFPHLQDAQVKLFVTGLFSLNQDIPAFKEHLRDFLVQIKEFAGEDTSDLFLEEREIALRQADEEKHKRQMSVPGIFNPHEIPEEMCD

KPT-127-conjugated XPO1 = KPT-127-conjugated XPO1 (human, UniProt O14980 1-1071, Cys528 covalently conjugated to KPT-127); experiment: cryo-EM structure
KPT-127-conjugated XPO1, sequence (O14980 whole entry): as above

[2] = target: KPT-UTSW1-conjugated XPO1 (human, UniProt O14980 1-1071); experiment: cryo-EM structure
KPT-UTSW1-conjugated XPO1, sequence (O14980 whole entry): as above

[3] = target: exportin 1 (XPO1), unliganded (human, UniProt O14980 1-1071); experiment: ITC
exportin 1 (XPO1), unliganded, sequence (O14980 whole entry): as above

[4] = target: T1, selinexor-conjugated XPO1; experiment: ITC

T1 sequence (O14980 whole entry): as above

binding result [1]: binds | binding result (KPT-185-conjugated XPO1): binds | binding result (KPT-127-conjugated XPO1): binds | binding result [2]: binds
B1: ASB8^ΔN16 (domain or fragment)
chain: SLSERLIRTIAAIRSFPHDNVEDLIRGGADVNCTHGTLKPLHCACMVSDADCVELLLEKGAEVNALDGYNRTALHYAAEKDEACVEVLLEYGANPNALDGNRDTPLHWAAFKNNAECVRALLESGASVNALDYNNDTPLSWAAMKGNLESVSILLDYGAEVRVINLIGQTPISRLVALLVRGLGTEKEDSCFELLHRAVGHFELRKNGTMPREVARDPQLCEKLTVLCSAPGTLKTLARYAVRRSLGLQYLPDAVKGLPLPASLKEYLLLLE

Kd [3]: 11000 nM | Kd [4]: 29 nM
B2: ASB8^ΔN16•ELOB/C (complex)
chain 1: B1 chain
chain 2: […]
chain 3: […]

Kd [4]: 58 nM
B3: ASB8^ΔN16/R197A•ELOB/C (complex)
chain 1: B1 chain with R181A
chain 2: […]
chain 3: […]

binding result [1]: binds
B4: ASB8^ΔN16/R197A (domain or fragment)
chain: B1 chain with R181A
